In this experiment the target is proMbxA (6H-MbxA, non-acylated precursor of the RTX toxin MbxA from Moraxella bovis) (Moraxella bovis). Briefly: SEC-MALS; proMbxA species of SEC peak 1, 1.3-2.5 mg/ml, 200 ul on Superose 6 Increase 10/300 GL; 50 mM TRIS pH 7.8, 100 mM NaCl, 10 mM CaCl2. (In general: In gel filtration, larger molecules generally elute earlier.)

As for “proMbxA (6H-MbxA, non-acylated precursor of the RTX toxin MbxA from Moraxella bovis) (natural protein)”, the stoichiometry N came to 2.

One may read the stoichiometry N as the number of molecules, sites or subunits per partner or assembly.

Source of the values: article PMC9592583.
